Experimental data published in the DeepSol protein solubility set.

Assay: soluble on expression in E. coli; label from the status in PepcDB or PDB records

Soluble on expression in E. coli, soluble:
VASGYGGIRVGGPYFDDLSKGQVFDWAPGVTLSLGLAAAHQSIVGNRLRLALDSDLCAAVTGMPGPLAHPGLVCDVAIGQSTLATQRVKANLFYRGLRFHRFPAVGDTLYTRTEVVGLRANSPKPGRAPTGLAGLRMTTIDRTDRLVLDFYRCAMLPASPDWKPGAVPGDDLSRIGADAPAPAADPTAHWDGAVFRKRVPGPHFDAGIAGAVLHSTADLVSGAPELARLTLNIAATHHDWRVSGRRLVYGGHTIGLALAQATRLLPNLATVLDWESCDHTAPVHEGDTLYSELHIESAQAHADGGVLGLRSLVYAVSDSASEPDRQVLDWRFSALQF, VDNDKLKDGYVNFINILNLDDMYVKKMREWRNQDFVRQRMFNREIITEEEHARFIEHLKDNREKNYYVCFLGNKPFGVLYYEFFRKNNNLEFGYYLTEQEFINSGLGIVMEYSLLNHAFYDLKVNKVFCRTLSSNEKVVSLHMNFGFETEGILRQHVRINDGYEDITIQAINERAWAQNRPKIEKYLRVIVDVDKIGPITGRS, VFPSSVYVPDEWEVSREKITLLRELGQGSFGMVYEGNARDIIKGEAETRVAVKTVNESASLRERIEFLNEASVMKGFTCHHVVRLLGVVSKGQPTLVVMELMAHGDLKSYLRSLRPEAENNPGRPPPTLQEMIQMAAEIADGMAYLNAKKFVHRDLAARNCMVAHDFTVKIGDFGMTRDIYETDYYRKGGKGLLPVRWMAPESLKDGVFTTSSDMWSFGVVLWEITSLAEQPYQGLSNEQVLKFVMDGGYLDQPDNCPERVTDLMRMCWQFNPNMRPTFLEIVNLLKDDLHPSFPEVSFFHSEENK, VGAIMLDGKATRDEIFGDLKQRVAALDAAGRTPGLGTILVGDDPGSQAYVRGKHADCAKVGITSIRRDLPADISTATLNETIDELNANPDCTGYIVQLPLPKHLDENAALERVDPAKDADGLHPTNLGRLVLGTPAPLPCTPRGIVHLLRRYDISIAGAHVVVIGRGVTVGRPLGLLLTRRSENATVTLCHTGTRDLPALTRQADIVVAAVGVAHLLTADMVRPGAAVIDVGVSRTDDGLVGDVHPDVWELAGHVSPNPGGVGPLTRAFLLTNVVELAERR, VINESEKEMIDSIFEFDDRIAEEVMTPRTEVYLINIDTPLNKYVDELLEIKYSRVPVFEGDSDNIIGILYIKDFIVEARKVGFENVNIKNIIHSPYFVPERKNINELFKELQAAKKHMAVLIDEYGGFSGIVTIEDLIEEVMGNISDE, VKPPHGFQKKMKLEVVDKRNPMFIRVATVADTDDHRVKVHFDGWNNCYDYWIDADSPDIHPVGWCSKTGHPLQPPLSPLELMEASEHGGCSTPG, VPDSSTALRILVYSDNVQTRERVMRALGKRLHPDLPDLTYVEVATGPMVIRQMDRGGIDLAILDGEATPTGGMGIAKQLKDELASCPPILVLTGRPDDTWLASWSRAEAAVPHPVDPIVLGRTVLSLLRAPAH, VPGPEYKVAILTVSDTVSAGAGPDRSGPRAVSVVDSSSEKLGGAKVVATAVVPDEVERIKDILQKWSDVDEMDLILTLGGTGFTPRDVTPEATKKVIERETPGLLFVMMQESLKITPFAMLARSAAGIRGSTLIINMPGNPNAVAECMEALLPALKHALKQIKGDKR, VPYKGYLIDLDGTIYQGKNRIPAGERFIKRLQERGIPYLLVTNNTTRTPEMVQSMLANQFHVETSIETIYTATMATVDYMNDMNRGKTAYVIGETGLKSAIAAAGYVEELENPAYVVVGLDSQVTYEMLAIATLAIQKGALFIGTNPDLNIPTERGLMPGAGALNALLEAATRVKPVFIGKPNAIIMNKSLEVLGIQRSEAVMVGDNYLTDIMAGIQNDIATILVTTGFTRPEEVPTLPIQPDHVLSSLDEWRL, VQREDGSWLLDGLIAVPELKDTLGLRAVPEEEKGVYHTLSGMIMWLLGRLPQTGDITFWENWRLEVIDMDSKRIDKVLATKIDNQPTEDPKPVA, VRILVTGGVRSGKSTHAEALLGDAADVVYVAPGRPAAGSDPDWDARVALHRARRPPTWLTVETADVATALSEARSPVLVDCLGTWLTAIMDGEALWSAATADVYAVLEARLDGLCAALTGLPTAIVVTNEVGLGVVPSHSSGVLFRDLLGTINRRVAAVCDEVHLVIAGRVLKL, VRRVPLFENMDERLLDAICERLKPCLFTEKSYLVREGDPVNEMLFIIRGRLESVTTDGGRSGFYNRSLLKEGDFCGDELLTWALDPKSGSNLPSSTRTVKALTEVEAFALIADELKFVASQFRR, VRSTPPASAGRSTPPALAGHSTPPALAGHSTLCGRPVAGDRALIMAIVNRTPDSFYDKGATFSDAAARDAVHRAVADGADVIDVGGVKAGPGERVDVDTEITRLVPFIEWLRGAYPDQLISVDTWRAQVAKAACAAGADLINDTWGGVDPAMPEVAAEFGAGLVCAHTGGALPRTRPFRVSYGTTTRGVVDAVISQVTAAAERAVAAGVAREKVLIDPAHDFGKNTFHGLLLLRHVADLVMTGWPVLMALSNKDVVGETLGVDLTERLEGTLAATALAAAAGARMFRVHEVAATRRVLEMVASIQGVRPPTRTVRGLA, VSFNANEVTHVDTPQEALAASLNKFGEVNLEYMENLSETGRQELLTQLENRIFYNPMMKNYEIKDRFIAGNVVAKVEWIENYLKDYPDDDASKKSLEALQKAIPEPISFELLDFNLGERWIPVSVYEEFAGYLFEAKAHIHYTESIDEFSVSFEETNANITDRYYVKGEKRGYYGNDLLKHALHNTVPDITKTVQDEEGNDIKVRDAEAIQLADAKINEIRSAFTGWLNEQLPEFKQHLADMYNRKFNCYVRPDYDGSLQSF, VTDMNPDIEKDQTSDEVTVETTSVFRADFLSELDAPAQAGTESAVSGVEGLPPGSALLVVKRGPNAGSRFLLDQAITSAGRHPDSDIFLDDVTVSRRHAEFRLENNEFNVVDVGSLNGTYVNREPVDSAVLANGDEVQIGKFRLVFLTGPKQGEDDGSTGGP, VTKIVSHRGANRFAPENTFAAADLALQQGADYIELDVRESADGVLYVIHDETLDRTTNGTGPVGHMLSSEIDTLDAGGWFDDRFKGAIVPRLDAYLEHLRGRAGVYIELKYCDPAKVAALVRHLGMVRDTFYFSFSEEMRQGLQSIAPEFRRMMTLDIAKSPSLVGAVHHASIIEITPAQMRRPGIIEASRKAGLEIMVYYGGDDMAVHREIATSDVDYINLDRPDLFAAVRSGMAELLLASNSSSTC

Soluble on expression in E. coli, not soluble:
VDSVFIVGHRKLDMDALGASVGMQFFASNIVNASYVVYDPNDMNSDIERAIDYLQEDGETRLVSVERAFELITQNSLLVMVDHSKTALTLSKEFFNKFADVIVVDHHRRDEDFPKNAVLSFIESGASSASELVTELIQFQQAKDKLSRSQASILMAGIMLDTRNFASNVTSRTFDVASYLRGLGSNSMAIQKISATDF, VGEVNLSARGNFTFARNEILEYDQVPQVYPWLEKKGTRLNSWKLYIADGLYTADDFNITGEGLNRQYELKPGVVSGLSSGVRPGDIKYKDLNGDGKIDSNDQMEDVGNPSVPEIVYGFGLNAEWKGAYVGIFFQGSGNTSTVLGASSNGAFFPFQWGVEESAVRSEVANRWTEQNPSQNVMFPRMHSTNYDNNTAASTWWLRNASFLRLKNIEVGYNFKEKTLKKIGIQALRVYLQGNNLCVWDDIKMWDPELGNTNGGFSYPLSRTFTFGLDFTF, VGKTVKREYCHEENDEELRKAVHDACYDKSYAIAASGNRNKHERQDAFDAIRDEFKAQFSEEELEEKGALIDRYYHDVEKEAMRRCILDEGKRLDGRKTTEIRP, VRALLAQNRLVTLCGTGGVGKTRLAIQIASASELRDGLCFVDLAPITESGIVAATAARAVGLPDQPGRSTMDSLRRFIGNRRMLMVLDNCEHLLDACAALVVELLGACPELTILATSREPIGMAGEITWRVPSMSITDEAVELFADRASRVQPGFTIANHNAAAVGEICRRLDGIPLAIEFAAARVRSMSPLEIADGLDDCFRLLAGGVRGAVQRQQTLRASIDWSHALLTETEQILFRRLAPFVGGFDLAAVRAVAAGSDLDPFSVLDQLTLLVDKSLVVADDCQGRTRYRLLETVRRYALEKLGDSGEADVHARHRDYYTALAASLNTPADNDHQRLVARAETEIDNLRAAFAWSRENGHITEALQLASSLQPIWFGRAHLREGLSWFNSILEDQRFHRLAVSTAVRARALADKAMLSTWLATSPVGATDIIAPAQQALAMAREVGDPAALVRALTACGCSSGYNAEAAAPYFAEATDLARAIDDKWTLCQILYWRGVGTCISGDPNALRAAAEECRDLADTIGDRFVSRHCSLWLSLAQMWAGNLTEALELSREITAEAEASNDVPTKVLGLYTQAQVLAYCGASAAHAIAGACIAAATELGGVYQGIGYAAMTYAALAAGDVTAALEASDAARPILRAQPDQVTMHQVLMAQLALAGGDAIAARQFANDAVDATNGWHRMVALTIRARVATARGEPELARDDAHAALACGAELHIYQGMPDAMELLAGLAGEVGSHSEGVRLLGAAAALRQQTRQVRFKIWDAGYQASVTALREAMGDEDFDRAWAEGAALSTDEAIAYAQRGRGERKRPARGWGSLTPTERDVVRLVSEGLSNKDIAKRLFVSPRTVQTHLTHVYAKLGLPSRVQLVDEAARRGSPS, VRRGQLIDAAREITAQHGVAALTIRGVAEAAGVSLGVVHYHFEDKEELLTEMGQSLILEVSEAMRMAFSQLVGPLKKRGVPGLRELLCAGIRGLWPIIEATPDQQLLTYEITAQALRQRGAGNDSAGLVAARQYRTMDTEAVAFLNLCAHRAGVTWGTPVDQVARFALAVLDGAVLRWLVDRDSDAARTAFDDLVQIIAAKALEGEGSW, VRSMGFLHRACRAPSSLPAPLMARPGRSVLARPAATPPGPLCATTRPRPPQGNQPPASRISNFPPKRHKTRVLAAAEDEVSAAVAALISAHGRRHHSLNNQAAAFHGQFAQNLNVGAGSCASAETTADAPTQALLGPADRQRRQRRAVRQWLVRWAAHPGRATRGFHNHRQ, VTMKEASAREIDEVVITGTGAQKKLTVTGAITNVDVDVLKANPSGSMANALAGNVPGILAMQTSGKPGSVSEFWIRGISTFGASNSALVLVDGFERSLDEINVEDVESFSVLKDASATAIYGSKGANGVVLITTKHGKAGK, VTNWWSGDKRYQRFIERLLSVFEGRVLELPAESHGNVAVMAFQSSPKEQNIDKLKKRADKLSNAYGLDFHRMLAGLKASNPNNGKHFHL, VTPVTTFPLVDAILAGRDRNLDGVILIAAQHLLQTTHAMLRSLFRVGLDPRNVAVIGKCYSTHPGVVDAMRADGIYVDDCSDAYAPHESFDTQYTRHVERFFAESWARLTAGRTARVVLLDDGGSLLAVAGAMLDASADVIGIEQTSAGYAKIVGCALGFPVINIARSSAKLLYESPIIAARVTQTAFERTAGIDSSAAILITGAGAIGTALADVLRPLHDRVDVYDTRSGCMTPIDLPNAIGGYDVIIGATGATSVPASMHELLRPGVLLMSASSSDREFDAVALRRRTTPNPDCHADLRVADGSVDATLLNSGFPVNFDGSPMCGDASMALTMALLAAAVLYASVAVADEMSSDHPHLGLIDQGDIVASFLNIDVPLQALSRLPLLSIDGYRRLQVRSGYTLFRQGERADHFFVIESGELEALVDGKVILRLGAGDHFGEACLLGGMRRIATVRACEPSVLWELDGKAFGDALHGDAAMREIAYGVARTRLMHAGASESLMV
